This is an account of results in US20260250363A1 (AP BIOSCIENCES, published 2026).

For assay [1], the target named is T1, SARS-CoV-2 B.1.1.529 Spike Protein (Omicron) (SARS-CoV-2, UniProt P0DTC2 16-1211). Put plainly: competition ELISA: blocks biotin-ACE2 binding to coated spike. For orientation: In an ELISA, binding on a coated surface is turned into a signal by an enzyme label.
Assay [2] concerns the target T2, SARS-CoV-2 Spike Trimer, His Tag (BA.4/Omicron) (MALS verified) (AcroBiosystems, SPN-C5229) (SARS-CoV-2, UniProt P0DTC2 16-1213). The description is as above.
The target of assay [3] is T3, SARS-CoV-2 Spike Trimer, His Tag (BA.5/Omicron) (MALS verified) (AcroBiosystems, SPN-C522e) (SARS-CoV-2, UniProt P0DTC2 16-1213). The description is as above.
Assay [4] addresses T4, Recombinant SARS-CoV-2 BA.2 Spike (GCN4-IZ) His Protein, CF (R&D, 11109-CV) (SARS-CoV-2, UniProt P0DTC2 16-1211). The assay is described as above.
Assay [5] concerns the target SARS-CoV-2 C.37 Spike His Protein (R&D, Cat. #10887-CV) (SARS-CoV-2, UniProt P0DTC2 16-1211). Kind of assay: direct ELISA on coated spike; no plateau within the range shown.
Assay [6] has as its target SARS-CoV-2 AY.1 Spike Protein (R&D, Cat. #10922-CV) (SARS-CoV-2, UniProt P0DTC2 16-1211).
Assay [7] addresses SARS-CoV-2 Spike Protein, wild type (R&D, Cat. #10549-CV) (SARS-CoV-2, UniProt P0DTC2 16-1211). Put plainly: direct ELISA on coated spike; no plateau within the range shown.
For assay [8], the target named is T1, SARS-CoV-2 B.1.1.529 Spike Protein …. Kind of assay: competition ELISA: blocks biotin-ACE2 binding to coated spike. This is another data set of the same source.
The target in assay [9] is SARS-CoV-2 C.37 Spike His Protein (R&D, Cat. #10887-CV) (SARS-CoV-2, UniProt P0DTC2 16-1211). The description is as above.
In assay [10] the target is SARS-CoV-2 Spike Protein, wild type (R&D, Cat. #10549-CV) (SARS-CoV-2, UniProt P0DTC2 16-1211). The assay is described as above.
The target of assay [11] is SARS-CoV-2 AY.1 Spike Protein (R&D, Cat. #10922-CV) (SARS-CoV-2, UniProt P0DTC2 16-1211). The assay is described as above.
Assay [12] addresses SARS-CoV-2 B.1.617.2 Spike Protein (R&D, Cat. #10878-CV) (SARS-CoV-2, UniProt P0DTC2 16-1211). Described as above.
Assay [13] concerns the target T3, SARS-CoV-2 Spike Trimer, His Tag …. Put plainly: BLI (ForteBio), mAb on AHC sensor, spike in solution. (In general: In BLI a coated tip is dipped into the sample, and binding shifts an interference pattern.)
Assay [14] has as its target T1, SARS-CoV-2 B.1.1.529 Spike Protein …. The assay is described as above.
Assay [15] addresses T4, Recombinant SARS-CoV-2 BA.2 Spike …. The description is as above.
The target in assay [16] is T2, SARS-CoV-2 Spike Trimer, His Tag …. The description is as above.

A word on the IC50: it is the concentration that inhibits the measured activity by half. One may read the EC50 as the concentration at which the effect is half-maximal. A high value points to lower potency in that assay. As a reminder, the Kd is a measure of binding affinity in units of concentration.

Where two headings read alike, the source gives them in different places.

B1: Anti-SARS-CoV-2 #R4-21-# R4-1a-10 scFv bsAb (bispecific antibody)
heavy: not shown
light: QSALTQPASVSGSPGQSITISCTGTSSDVGGYNYVSWYQQHPGKAPKLIIYDVRNRPSGVSNRFSGSKSGNTASLTISGLQAEDEADYYCGSYTSSSTLGFGGGTKLTVLGQPKAAPSVTLFPPSSEELQANKATLVCLISDFYPGAVTVAWKADSSPVKAGVETTTPSKQSNNKYAASSYLSLTPEQWKSHKSYSCQVTHEGSTVEKTVAPTECS
Consider B1, for which the IC50 in assay [1] amounted to 1.08 nM; in assay [2], 1.04 nM; in [3] it was 1.37 nM; in assay [4], 0.246 nM.

B2: Anti-SARS-CoV-2 #R4-21-# R4-1a-51 scFv bsAb (bispecific antibody)
heavy: not shown
light: QSALTQPASVSGSPGQSITISCTGTSSDVGGYNYVSWYQQHPGKAPKLIIYDVRNRPSGVSNRFSGSKSGNTASLTISGLQAEDEADYYCGSYTSSSTLGFGGGTKLTVLGQPKAAPSVTLFPPSSEELQANKATLVCLISDFYPGAVTVAWKADSSPVKAGVETTTPSKQSNNKYAASSYLSLTPEQWKSHKSYSCQVTHEGSTVEKTVAPTECS
For the molecule B2, the IC50 in assay [1] is 1.01 nM; in assay [2] it was 1.14 nM; in assay [3], 1.65 nM; in assay [4], 0.354 nM.

B3: Anti-SARS-CoV-2 #R3-1a-1-# R4-1a-10 scFv bsAb (bispecific antibody)
heavy: not shown
light: NFMLTQPHSVSESPGKTVTISCTRSSGSIASKYVQWYQQRPGNSPTTVIYEDDQRPSGVPDRFSASIDSSANTASLTISGLKPEDEADYYCQSYDDNTAVFGGGTHLTVLGQPKAAPSVTLFPPSSEELQANKATLVCLVSDFYPGAVTVAWKADGSPVKVGVETTKPSKQSNNKYAASSYLSLTPEQWKSHRSYSCRVTHEGSTVEKTVAPAECS
As for B3, the IC50 in [1] was 1.83 nM; in [2], 3.51 nM; in assay [3], 4.97 nM; in assay [4] it was 0.803 nM.

B4: R3-1a-1/R4-1a-51 scFv (bispecific antibody)
heavy chain with C-terminal scFv: not shown
light chain: NFMLTQPHSVSESPGKTVTISCTRSSGSIASKYVQWYQQRPGNSPTTVIYEDDQRPSGVPDRFSASIDSSANTASLTISGLKPEDEADYYCQSYDDNTAVFGGGTHLTVLGQPKAAPSVTLFPPSSEELQANKATLVCLVSDFYPGAVTVAWKADGSPVKVGVETTKPSKQSNNKYAASSYLSLTPEQWKSHRSYSCRVTHEGSTVEKTVAPAECS
As for B4, the IC50 was found to be 5.85 nM in assay [1], 7.74 nM in assay [2], 11.1 nM in assay [3] and 3.31 nM in assay [4].

B5: R4-7 (antibody, V domains shown)
VH: QVQLQESGGGLVQPGGSLRLSCAVSGMTLDYYAIAWFRQAPGKEREGVSRISSSDGSTSYADSVKGRFTISRDNAKNTVYLQMNSLKPEDTGVYYCAASPLTYYSGTYYFPGEYDYWGQGTQVTVSS
On to B5, for which the EC50 amounted to 13.3 nM in assay [5], 252000 nM in [6] and 20.4 nM in [7].

B6: Anti-SARS-CoV-2 #R4-11#R4-1a-10 scFv bsAb (bispecific antibody)
heavy: not shown
light: QSVLTQPPSVSEAPGQRVTISCSGSSSNIANNAVNWYQQLPGQAPKLLIFYDDLLPSWVSDRFSGSKSGTSASLAISGLQSEDEADYYCAAWDDSLNGPVFGGGTKLTVLRQPVAAPSVTLFPPSSEELQANKATLVCLISDFYPGAVTVAWKADSSPVKAGVETTTPSKQSNNKYAASSYLSLTPEQWKSHKSYSCQVTHEGSTVEKTVAPAECS
For the molecule B6, the IC50 was 2.32 nM in [8]; 1.97 nM in [9]; 2.73 nM in assay [10]; 0.715 nM in [11]; 1.45 nM in assay [12].

B7: anti-SARS-CoV-2 antibody clone R4-21 (antibody, V domains shown)
VH: QVQLVQSGAEVKKPGESLKISCKGSGYSFTSYWIGWVRQMPGKGLEWMGIIYPGDSDTRYSPSFQGQVTISADKSISTAYLQWSSLKASDTAMYYCATQTPYYDSSDYYLGDAFDIWGQGTMVTVSS
VL: QSALTQPASVSGSPGQSITISCTGTSSDVGGYNYVSWYQQHPGKAPKLIIYDVRNRPSGVSNRFSGSKSGNTASLTISGLQAEDEADYYCGSYTSSSTLGFGGGTKLTVLG
With B7, the Kd turned out to be 2.63 nM in assay [13], 2.58 nM in assay [14], 2.32 nM in assay [15] and 1.62 nM in assay [16].

B8: Anti-SARS-CoV-2 #R4-1a-10-#R4-11 scFv bsAb (bispecific antibody)
heavy: not shown
light: QSVLTQPSSVSAAPWQRVTISCSGSDSNIGNNPVNWYQHVPGKAPTLLIYYDNFLASKISDRFSGSKSGTSASLAISGLQSDDEADYYCASWDDSLNGVVFGGGTKLTVLRQPKAAPSVTLFPPSSEELQANKATLVCLISDFYPGAVTVAWKADSSPVKAGVETTTPSKQSNNKYAASSYLSLTPEQWKSHRSYSCQVTHEGSTVEKTVAPTECS
As for B8, the IC50 was found to be 1.06 nM in assay [8]; 0.897 nM in assay [9]; 0.857 nM in [10]; 0.349 nM in [11]; 0.563 nM in assay [12].
